Source: the DeepSol protein solubility set

Assay: soluble on expression in E. coli; label from the status in PepcDB or PDB records

With “MLEFQTPELLRMPLQELCLHTKLLAPVNCPIADFLMKAPEPPPALIVRNAVQMLKTIDAMDTWEDLTELGYHLADLPVEPHLGKMVLCAVVLKCLDPILTVACTLAYRDPFVLPTQASQKRAAMLCRKRFTAGAFSDHMALLRAFQAWQKARSDGWERAFCEKNFLSQATMEIIIGMRTQLLGQLRASGFVRARGGGDIRDVNTNSENWAVVKAALVAGMYPNLVHVDRENLVSTGPKEKKVRFHPASVLSQPQYKKIPPANGQAAAIKALPTDWLIYDEMTRAHRIANIRCCSAVTPVTILVFCGPARLASNALQEPSSFRVDGIPNDSSDSEMEDKTTANLAALKLDEWLHFTLEPEAASLLLQLRQKWHSLFLRRMRAPSKPWSQVDEATIRAIIAVLSTEEQSAGLQQPSGIGQRPRPMSSEELPLASSWRSNNSRKSSADTEFSDECTTAERVLMKSPSPALHPPRKYKDRGILHPKRGTEDRSDQSSLKSTDSSSYPSPCASPSPPSSGKGSKSPSPRPNMPVRYFIMKSSNLRNLEISQQKGIWSTTPSNERKLNRAFWESSIVYLVFSVQGSGHFQGFSRMSSEIGREKSQDWGSAGLGGVFKVEWIRKESLPFQFAHHLLNPWNDNKKVQISRDGQELEPQVGEQLLQLWERLPLGEKNTTD” as the sequence, how does the “soluble on expression in E. coli” value read?
The value was “soluble”.

Which “soluble on expression in E. coli” value does the source give for “MVKTMKCKFCDKKSYIKLKSPKMYLCKEHFVEYFENKVKKSIDKYKMLSKDEKILVAVSGGKDGHAAAWVLKKLGYNIELFHINLGIEGFSEESLKAVKELAEKLEVPLHVVNLKDITGKTMEDIRGKKCSICGTTKRYLMNKFGYENGFDVIVTGHNLDDEVSFILNNLFNWNIRYLAKHEPVLPAHDKFLKKVKIFFEIEEELILKYAEAEEIPYTTVECKYAERAITLKHRAYLNELEKERPGIKYQFLSGYMKNRHLFKVEEEDFQFRECEVCGMTSAGKICSFCRVWKLYKKKKENRN” here?
The value was “soluble”.

With “AHHHHHHGSITRGRVWKFGDNISTDAITPGRYNLTKDPNELAKIAFIEERPEFSKEVKPGDVVVGGKNFGIGSSRESAALALKAAGVGGVIAKSFGRIFFRNAVNLGLPLLIGNTDPLLDGEIVEVNWRSGEVKKEDGEVLKFKPLDSFLLAIVEEGGIIEYIRRRGDLWIQ” as the sequence, how does the “soluble on expression in E. coli” value read?
Its value is “soluble”.

With “MQKIKSLMTRQGLKSPQESLSDLGAIESLRVPGKEEFRELREQPSDPQAEQELINSIEQVYFSVDSFDIVKYELEKLPPVLNLQELEAYRDKLKQQQAAVSKKVADLILEKQPAYVKELERVTSLQTGLQLAAVICTNGRRHLNIAKEGFTQASLGLLANQRKRQLLIGLLKSLRTIKTLQRTDVRLSEMLEEEDYPGAIQLCLECQKAASTFKHYSCISELNSKLQDTLEQIEEQLDVALSKICKNFDINHYTKVQQAYRLLGKTQTAMDQLHMHFTQAIHNTVFQVVLGYVELCAGNTDTKFQKLQYKDLCTVCSDLITIHISLL” as the sequence, how does the “soluble on expression in E. coli” value read?
Its value is “soluble”.

For “MINLTNLASSLARVALSDSTKPTIDRAMNVVSHIAGKVALQVNSSLLEQKGRLNERQQKGLEVILDALLGKEPVTHVETHEGGGRFNLARAAFDVASVVWERDQSMRNVMSFLGINDSKGNLLFSLGKTLADAMARPEPENGKHNSEANYAFFSSNLKLNKLMNDIADQVINEIRQQNTDRVRRPTPGPSWRPESTQQQARPQTPPSARPQANSAPPPPKAQPDAGAQRPSTERPPKTTPTGASAKVDDSAPAKPPVKQLYEHLGLSDMTADLSAVKKAYKKAALKYHPDKNAGNVAEANERFKKISNAFRILSDPELRTKYDNGVIDENG”, which “soluble on expression in E. coli” value is on record?
Its value is “not soluble”.

With “MSLDPFSIVQDFRSIAGEEALEIAESGEENDNEQFQNWELEAKFWDLVGLLVEYRTSETVDKDINVHSYNSNVVFQKQLLQSNKGIYEIWLIKSWLEANIGIPERPSSLCTTKWSSSMIAGTVKSMDSDSILRDPTTNLQPDDRQNDHAFFVYAFRLLLAGQFEKLTEECEFTDNLTLNLILRGMESYVDPNVDTDMTDEYASQQGIKKHALWRRSVYALSQDPLLDPYEAAIYTYLSGDSPTNLRIDGLDWETELLIYVNQIWNVTMENYLIEHGRVDNDELITDMDTACPSLSQVLNILAAKYPDESEHPIRVLTASVLLNTIEPVMKSSTDMLLDVIKGRDEDNALFNESYLLRILTNLTIFLDIVSPDTIDISNKSKLLTSYISLLSYYGLYDVIPVFVSFLSQEEIVETYSFFLTNLIDPNLRQKQMEISKYLGLPIANILRRTAQRIFEETDQYYIVDSDIELTNEVSEVDQRLMNGVEWLIENGLYTDSIDTIIALSRRFLINGKVKALELFVDNHDVPNLLKEYQLERLSSQEEDHDLKTTELLQYTSLLSTFKKQEEWVKSSQLFNTESNLRSLIKQFKGFSNTIIKLVTTFLVDLIDNEEVNDSDVLYEIRALYTPFLIMELHNNLISASENLKVSTFVQEAIDLSILVANETDKIYLLFQSNGKLTTYLQMVAKASALFGREGHHHHHH” as the sequence, how does the “soluble on expression in E. coli” value read?
The value was “not soluble”.

Which “soluble on expression in E. coli” value does the source give for “MTKKSTIQPCLVCGQSSNSILFGAPSCRACGEFFRRKVISNFKIKNNCLGECSFAKKSMKPCQSCRFQKCLEAGMLEKMVFSRKAIYSISNFEKSILEELEEAYSKLEHGRNETFNPKSDSNPKFCSHEELNNTCTIDIQIILDNLISYFQAKKPMGKEQDDVLKMHFIVPFVLFDTAFRAIGKSSYISPDGTMFGGSYVEKLYQDSSNSKIGVNNGKTSREIMESYWKVSYKILKSEMELLQLDRSEFLLLSALIYWDFGLENQSDKCCENCNTIREKVLKELVKYERKKSGQNALRIAMIMGLLQAVPKALDVMKTCGFLSKIYNLRGSGCPLYAISTNSPPQ” here?
Its value is “not soluble”.

With “MMSTPPQNTRPVFSVDGLWKVFGPKAERVPADPELAALSAAELSERTGCTAAVRDVSFDVHKGEVFVVMGLSGSGKSTLVRCLTRLIEPTAGTIAIDGEDVRAMDRTRLRELRRHRASMVFQHFGLLPHRTVLDNVAYGLEIQGLGKAERRERAAEVVAKVGLEGMEQRKPGQLSGGQQQRVGLARALAVDPEVLLFDEPFSALDPLIRRDMQEEVVRLHREEGRTMVFITHDLNEALRLGDRIALMRDGRVVQLGTPEEIVGSPADDYVREFVRDVPREQVMTVRTAMRAASAEEAGSGPAVAPDATVSEAIEAVARAGSPARVVDSGRCVGVVDSEALLDVVAGVGASGPAPAVTAVPPFEPSRDFGNAGAGAAEAAPGDVTGEEVALEHHHHHH” as the sequence, how does the “soluble on expression in E. coli” value read?
The value was “soluble”.

Which “soluble on expression in E. coli” value does the source give for “MEIKTTTTLHRVVEETTKPLGATLVVETDISRKDVNGLARGHLVDGIPLCTPSFYADIAMQVGQYSMQRLRAGHPGAGAIDGLVDVSDMVVDKALVPHGKGPQLLRTTLTMEWPPKAAATTRSAKVKFATYFADGKLDTEHASCTVRFTSDAQLKSLRRSVSEYKTHIRQLHDGHAKGQFMRYNRKTGYKLMSSMARFNPDYMLLDYLVLNEAENEAASGVDFSLGSSEGTFAAHPAHVDAITQVAGFAMNANDNVDIEKQVYVNHGWDSFQIYQPLDNSKSYQVYTKMGQAKENDLVHGDVVVLDGEQIVAFFRGLTLRSVPRGALRVVLQTTVKKADRQLGFKTMPSPPPPTTTM” here?
Its value is “soluble”.

For “MSQNSLPSEVSNATIDKELYYHGLLPSEDVRQLLSNNGDFLLRSSEPEPGSPRTHILSVMFNNRLDDINSIKHFVVNFVDGKYFINDKMSFPSIQKMLGTYQRNNTEIKEGCMLVNPIRRQFWELEHDQITIHKKLGEGAFGEVSSGVMKFKKGMKTVQVAIKQVKLDKTGKAKIKDFLAEARTMRKLGHQNIIKFYGVGVLQEPLYLVMELAVNGALDSFLKKNEDLSVDKKTEMILQAAWGLEYIHGKPMLHRDIAARNCLYTDGKVKISDFGLTRNGTVYQIKPNTKSPIRWLAIETIKTMICSEKTDVWAYGVLCWEIFNNAAEPYPGMKPADVATQVANGYRMPPYPHAQAEIQTMMARCNAENPNDRPSMAEIAEILQRVTETPRPNFTAIAKKEAEELLLMNSVTTKTTARRKKSNVKLPKGMSKN”, which “soluble on expression in E. coli” value is on record?
Its value is “not soluble”.
